Measurements from US20250262210A1 (TRUSTEES OF COLUMBIA UNIVERSITY IN THE CITY OF NEW YORK, published 2025).

Target: T1, RNF123 (human, UniProt Q5XPI4 2-1314, limits assumed)
T1 sequence (looked up): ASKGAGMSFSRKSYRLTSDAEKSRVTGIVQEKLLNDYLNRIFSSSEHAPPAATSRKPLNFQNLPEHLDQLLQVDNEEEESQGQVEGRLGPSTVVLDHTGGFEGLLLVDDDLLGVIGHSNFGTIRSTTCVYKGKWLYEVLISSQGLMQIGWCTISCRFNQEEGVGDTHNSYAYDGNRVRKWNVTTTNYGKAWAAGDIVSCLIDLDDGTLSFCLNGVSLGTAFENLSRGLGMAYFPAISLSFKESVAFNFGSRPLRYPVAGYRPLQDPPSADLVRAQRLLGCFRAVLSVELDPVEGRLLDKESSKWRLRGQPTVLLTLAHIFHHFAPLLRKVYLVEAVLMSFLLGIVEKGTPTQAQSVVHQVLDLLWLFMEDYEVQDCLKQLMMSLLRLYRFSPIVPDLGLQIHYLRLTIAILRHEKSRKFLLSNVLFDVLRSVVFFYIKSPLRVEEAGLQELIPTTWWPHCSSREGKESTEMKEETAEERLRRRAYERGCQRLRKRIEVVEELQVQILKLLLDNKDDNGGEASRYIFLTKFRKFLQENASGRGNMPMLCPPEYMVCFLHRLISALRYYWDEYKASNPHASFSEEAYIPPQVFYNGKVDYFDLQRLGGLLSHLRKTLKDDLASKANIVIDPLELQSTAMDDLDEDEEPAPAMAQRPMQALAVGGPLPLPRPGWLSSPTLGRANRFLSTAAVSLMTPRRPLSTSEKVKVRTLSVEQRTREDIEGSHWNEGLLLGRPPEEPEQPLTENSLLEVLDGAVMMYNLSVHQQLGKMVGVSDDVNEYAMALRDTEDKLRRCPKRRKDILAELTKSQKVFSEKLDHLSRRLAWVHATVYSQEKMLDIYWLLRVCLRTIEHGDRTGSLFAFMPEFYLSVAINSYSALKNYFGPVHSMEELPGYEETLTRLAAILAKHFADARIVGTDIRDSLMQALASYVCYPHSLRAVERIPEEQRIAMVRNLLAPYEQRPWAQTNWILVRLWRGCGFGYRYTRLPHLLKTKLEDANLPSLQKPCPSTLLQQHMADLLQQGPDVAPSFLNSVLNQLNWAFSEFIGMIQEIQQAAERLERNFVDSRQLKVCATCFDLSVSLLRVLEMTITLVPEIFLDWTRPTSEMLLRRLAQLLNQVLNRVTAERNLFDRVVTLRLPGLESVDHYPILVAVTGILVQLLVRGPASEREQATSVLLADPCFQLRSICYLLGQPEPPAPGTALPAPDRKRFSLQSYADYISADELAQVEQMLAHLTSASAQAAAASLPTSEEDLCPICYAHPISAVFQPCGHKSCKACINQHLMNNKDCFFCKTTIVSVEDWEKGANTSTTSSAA
Assay: IP/MS, LZTR1 wild type-FLAG, U87
Method in brief: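 Gel slices were reduced with 5 mM DTT, alkylated with 11 mM IAA and digested overnight at 37° C. with trypsin. Peptides were analysed on an Orbitrap Fusion Tribrid by LC-MS/MS.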

B1: LZTR1-FLAG (other, human, UniProt Q8N653 1-840, looked up)
chain: MAGPGSTGGQIGAAALAGGARSKVAPSVDFDHSCSDSVEYLTLNFGPFETVHRWRRLPPCDEFVGARRSKHTVVAYKDAIYVFGGDNGKTMLNDLLRFDVKDCSWCRAFTTGTPPAPRYHHSAVVYGSSMFVFGGYTGDIYSNSNLKNKNDLFEYKFATGQWTEWKIEGRLPVARSAHGATVYSDKLWIFAGYDGNARLNDMWTIGLQDRELTCWEEVAQSGEIPPSCCNFPVAVCRDKMFVFSGQSGAKITNNLFQFEFKDKTWTRIPTEHLLRGSPPPPQRRYGHTMVAFDRHLYVFGGAADNTLPNELHCYDVDFQTWEVVQPSSDSEVGGAEVPERACASEEVPTLTYEERVGFKKSRDVFGLDFGTTSAKQPTQPASELPSGRLFHAAAVISDAMYIFGGTVDNNIRSGEMYRFQFSCYPKCTLHEDYGRLWESRQFCDVEFVLGEKEECVQGHVAIVTARSRWLRRKITQARERLAQKLEQEAAPVPREAPGVAAGGARPPLLHVAIREAEARPFEVLMQFLYTDKIKYPRKGHVEDVLLIMDVYKLALSFQLCRLEQLCRQYIEASVDLQNVLVVCESAARLQLSQLKEHCLNFVVKESHFNQVIMMKEFERLSSPLIVEIVRRKQQPPPRTPLDQPVDIGTSLIQDMKAYLEGAGAEFCDITLLLDGHPRPAHKAILAARSSYFEAMFRSFMPEDGQVNISIGEMVPSRQAFESMLRYIYYGEVNMPPEDSLYLFAAPYYYGFYNNRLQAYCKQNLEMNVTVQNVLQILEAADKTQALDMKRHCLHIIVHQFTKVSKLPTLRSLSQQLLLDIIDSLASHISDKQCAELGADI
notes: Expressed in HEK 293T, HeLa or U87 cells; used as cell lysate; also called LZTR1 wild type-FLAG; LZTR1 WT; not shown: FLAG tag at the C-terminus
  binding result: binds
